Measured values taken from the supplement of paper PMC12042874.
± gives the uncertainty stated by the source.

Test: amyloid nucleation score (Sup35N fusion, yeast selection) (log enrichment); library NNK2; higher = more nucleation; inactive = no reads after selection
Procedure, shortened: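 Peptides of 20 random codons fused to Sup35N were expressed in psi-negative yeast, induced 24 hours with 100 μM copper sulfate, then grown 7 days at 30°C on medium lacking adenine and uracil. Input and output plasmid inserts were Illumina-sequenced. Nucleation score is the DiMSum log enrichment of output over input reads, centred on the mode score of non-aggregating sequences, excluding sequences with under 100 input reads. Random libraries had three technical output replicates.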

Point of comparison: AEMVSANRLSKCEMTIRLWD, amyloid nucleation score 3.64 ± 0.077. Against it:
- RVSRRCVYWRRQGHWAIFGQ — lower, 0.098 ± 1
- TVATRHYNLNGQSWKKWAQ — lower, 0.059 ± 0.23
- LWTHGSYSVLRLIEPVGAQE — lower, 0.971 ± 0.51
- KRYWSPVFVQNYIDDFKVSD — lower, 0.453 ± 0.34
- NLILWKTYCAAFCVGFINCT — higher, 5.36 ± 0.069
- CMISTDLKVTRALSTHKNCI — lower, 0.02 ± 0.56
- NWLQGVYCCGKVIGSLTSTD — higher, 8.775 ± 0.043
- CIDRFHTVPLAVHSVCGILL — lower, -0.319 ± 0.76
- SKCWESREQGYMYMEWGFEG — lower, 0.219 ± 1
- ESSLDCMRDANNKAAWVEVV — lower, 1.05 ± 0.23
- RGADIAVRNFFDYQRRRWCN — lower, 0.222 ± 0.44
- LSFKRDELVNLNRFSVQFAQ — lower, -0.694 ± 0.38
- FNCGASKNSLKNEGKW — lower, -0.925 ± 0.63
- GKIKTVFWSKDLRFVFIMCV — lower, -0.633 ± 0.48
- CIGYKLLLGELLAP — lower, 0.137 ± 0.5
- FFSVHEDRREKYLSNNV — lower, -2.15 ± 1.1
- GCRRETEDVSGRLCCVVWSL — lower, 0.206 ± 0.5
- KSMEGSNVMSRRYNWPWKDS — lower, 0.062 ± 0.63
- VFSGTSMRGTEEIKMSWCEK — higher, 7.686 ± 0.044
- LVKMTLGCATSMLRCLMLSV — lower, 0.457 ± 0.24
- LRVGSRKVRVWSLVSFCLVV — lower, -0.271 ± 0.42
- SWRWKATAT — lower, -1.09 ± 0.45
- MGEYFSMALYAPYTWVFMSV — lower, -1.55 ± 1
- SNGVAWQCNGNSYRIFCDTS — higher, 7.522 ± 0.069
- GIMLLSCFDCGGLSTLGHLA — higher, 7.56 ± 0.082
- DLLRPSGMFFCYGQFYCLKC — lower, -1.05 ± 0.39
- SHQWLRRLPWVI — lower, 0.528 ± 0.44
- FSRICKAMYQKSGYKINGIN — lower, -0.283 ± 1
- CSRIHIV — lower, -0.255 ± 1.1
- HHVEGMGYFLS — lower, 0.175 ± 0.25
- ICKGRCVASGWV — lower, 1.61 ± 0.14
- MGQTVSRPWQAGSLYGANPC — lower, 0.926 ± 0.45
- CASAFCLTRE — higher, 4.49 ± 0.057
- AYIVDTKVT — lower, 1.11 ± 0.68
- RFWLNCCWRTCSTTFLNWMK — lower, 0.472 ± 0.6
- MVHPDVNHSYGSVWKPWSDK — lower, 0.132 ± 0.44
- SDRQHNAYNFLFVL — higher, 4.6 ± 0.051
- SSPAACYMR — lower, -1.69 ± 1.1
- CMTTYTNLIHIPIQVSTPKR — higher, 7.51 ± 0.043
- AMNRFST — lower, -0.975 ± 1.1
- HFCYYMCFEWLDTIVAYYLG — lower, -0.337 ± 1.1
- AMMFDVFRYLRESVISMCKG — lower, 0.367 ± 0.54
- AYHNLRN — lower, 0.191 ± 0.63
- NRKFARWLLLT — lower, -0.492 ± 0.61
- CQSRY — lower, -0.373 ± 1.1
- YVCCR — lower, 0.565 ± 0.46
- GMVFRRWREMYSSFVDRTLR — lower, 0.799 ± 0.51
- LYNVVSNTVKYCIFPC — higher, 7.135 ± 0.043
- PIGLYRSMATQVNCC — within error, 3.71 ± 0.094
- KAMYFYSRTVRPMMGSEEGS — lower, -0.072 ± 0.4
- WNTLKVAGSVGGTAVDQVAV — lower, 1.33 ± 0.34
- CNDGMTTSDYWWCSARLDPY — lower, 0.345 ± 0.2
- YNSSCCSERSYLLSVFRISR — lower, 0.178 ± 0.17
- IQPQSSVVERGQMNMVGPTP — lower, 1.49 ± 0.12
- YFSFFVSKVTGGWSCHVESA — lower, -0.004 ± 0.34
- LCLTYYRDHGVLASMYFHVW — lower, 0.529 ± 0.31
- LLVVIPYGSYWDV — lower, -0.501 ± 0.78
- NFYAYIIVDCSWMCSTCYSL — higher, 5.52 ± 0.044
- SSSFFYTHVNHHLVLYDGKA — lower, -0.712 ± 1.1
- PSQHSWGWARCLQDCDSMPG — lower, 0.591 ± 0.34
- ELFFCFKRLHGLMGYNDLES — higher, 4.13 ± 0.063
- RNFRSCP — lower, 0.797 ± 0.44
- YRMLSIKCGM — lower, -0.707 ± 0.79
- IRFRVLVPNLGKASDRFQVP — lower, -0.19 ± 0.53
- RPLLKRKESM — lower, 0.573 ± 0.28
- RHADF — lower, 1.39 ± 0.27
- SERTLNLRSKSSPHPCST — higher, 3.86 ± 0.12
- YWVYAGIGVRMCNRVYNNLR — lower, 0.336 ± 0.3
- LNGYNYATCVLSPFFNE — lower, -0.497 ± 0.76
- YMERIYRWYSQCNRCQVRLW — lower, -0.644 ± 0.54
- WCSIDLSHFVCYNLGYMR — higher, 7.395 ± 0.052
- KTMNPYDFSLFIATIMKSLN — lower, -0.476 ± 1.1
- ILASCTSRCFESEVRGTSFA — lower, 0.568 ± 0.39
- TLYVVYLDEICYLLFKVSYC — lower, 1.2 ± 0.66
- RPRRSTGCIFVDCKSKQHCI — lower, 2.84 ± 0.15
- SQRLIRWNCLNAGTIMPSVV — lower, 0.089 ± 1.1
- KLQTLLQWFGLY — lower, -0.392 ± 0.41
- RVTNLIHQLRVPKIGKSGFA — lower, 0.294 ± 0.23
- HVLFIAKLDFALTEFLRMCE — lower, 0.735 ± 0.19
- DDLSMRVVRLRNVTLYHYFG — lower, 3.21 ± 0.088
- DCLLSFVRVRSSPSVRY — higher, 4.47 ± 0.056
- IMPLSKLCMWETIRSDGRRG — lower, 1.07 ± 0.29
- THLHQD — lower, -1.55 ± 0.76
- LRTVDVAR — lower, -0.654 ± 0.55
- RWCSSYRYIHSGGRNASGSF — lower, -0.108 ± 0.8
- CKVHVQVNTESYTGIVMTYY — higher, 4.65 ± 0.039
- RGGVVNCRFRAHFMWL — higher, 5.779 ± 0.041
- SCSVCWSLSMV — lower, 1.31 ± 0.36
- SFLRSTSRDPKGCVKMRYFT — lower, 1.17 ± 0.2
- MRHILCISSVGRFNFRCCFK — lower, -0.038 ± 1
- KRARR — lower, 0.356 ± 0.4
- YRRQPS — lower, 0.174 ± 0.56
- YVFLEGFNRVFDHVACIGLK — lower, -0.721 ± 0.35
- GWSITGSWFHNMAILLICFR — lower, 3.38 ± 0.075
- DQFSGNACSIIVLVSALACF — lower, 3.01 ± 0.17
- VCYMGTRCGWNSRARVFWGS — lower, 2.69 ± 0.11
- YNKSSYE — lower, -1.47 ± 1.1
- PKNLILLSHFYSEAVCPGAR — lower, -0.927 ± 1.1
- IIVYFVAFASTGARASK — lower, -0.951 ± 0.54
- LDDWDGKTSRIHSGFYSRLR — lower, 0.224 ± 0.52
- ILLMNVNGILSIRVQRRKRV — lower, -0.623 ± 0.79
- LIQSFSVLAMHDRLGCWRLR — lower, 2.74 ± 0.12
- FVTTENLVNSLVLNMARAKK — lower, 3.44 ± 0.097
- MRGTRACIFKRQDTSNTLNE — lower, -1.42 ± 0.62
- SASVHYHYDMK — lower, 0.268 ± 0.62
- HVAFKLKVIVRIVSLTSGER — lower, 2.94 ± 0.075
- DVCYCRKPTINALRWLMMYA — lower, -0.27 ± 1.1
- LINLVWTDEITMSDYMKRSG — lower, 0.858 ± 0.17
- LTACEQSWLKILLLMEMQTL — lower, -0.137 ± 0.54
- DVLFDITNNGHSSLLAAV — lower, 0.224 ± 0.8
- PLGYGMGLRGLFGLLDSYFG — lower, 0.19 ± 0.8
- NVHFFCWCFLNLCV — lower, -0.558 ± 1
- SLLNTGRYCWC — lower, 1.05 ± 0.35
- IDVGI — lower, 0.106 ± 0.2
- VTRDFSRGIGDWLICGDILE — lower, -1.81 ± 0.49
- NSLLVFQNNFGIETNGVNII — lower, 0.94 ± 0.74
- YAFKRECWCHYHHHCVQMFW — lower, 0.49 ± 0.33
- RTSSL — lower, -0.336 ± 0.49
- TDRIDCAFAYDYL — lower, -1.08 ± 0.54
- TICSHKRKYNWMIGWRMSTF — lower, 0.142 ± 0.45
- KCLCAGFLF — lower, -0.577 ± 0.38
- KVPMICSMEWRPLVSSHCTR — lower, -0.718 ± 0.76
- YWVFI — lower, -0.115 ± 0.56
- SSASTRDEKGGSGALERERC — lower, -0.243 ± 1.1
- YSMWGYCISPNKHVYFTHGR — lower, -0.421 ± 0.78
- KWSIRVGPQWV — lower, 3.43 ± 0.11
- KVDQGMQSSLRKCPFHQIKP — lower, 1.62 ± 0.32
- KCDLMRWSHFQ — lower, 1.24 ± 0.48
- NYIWFVNPYRRFSHVNHITN — lower, -0.176 ± 1.1
- CKLMMGVFVLTVNTCGDVSS — higher, 5.33 ± 0.054
- WAIRPSRYYITAYAVELHCD — higher, 9.114 ± 0.074
- IARSKVGRRYHVGRFRCVCV — lower, -0.095 ± 0.44
- CNIVRSYCLL — lower, -0.937 ± 0.5
- FYSTLFHFPYLVDQMYGPTI — lower, -1.29 ± 1
- CKRSTH — lower, -0.461 ± 0.49
- TFFMVGNMNNTPSPRPARTK — higher, 4.57 ± 0.089
- NKVVGNTNTFLEND — higher, 3.91 ± 0.094
- TIMYYVWCLFFWMCLGYGHS — lower, 1.53 ± 0.1
- GIMSVGTAKWRDGQPSACRK — lower, 0.996 ± 0.37
- KRVFMWRSG — lower, -0.424 ± 1.1
- ANRKRVK — lower, 0.223 ± 0.61
- AKWRDRSETYYLYFRISVRI — lower, -0.493 ± 1.1
- LWNVD — lower, 2.94 ± 0.19
- LFSVVLVGGARRSYLRGGPG — lower, 0.611 ± 0.81
- VYLCARKGM — lower, -0.287 ± 0.79
- MGRTHRTTTPGSRFYTSTAF — lower, -0.57 ± 1
- LMIAFKQRFIPS — lower, 1.12 ± 0.4
- KVFIANTIGHWCMNQQIMML — lower, 0.217 ± 0.36
- LCIGYFLV — lower, -1.62 ± 1.1
- LTSSRRF — higher, 5.724 ± 0.037
- VVTRNRISRAGGLRS — lower, 0.616 ± 0.39

With SLKEIECFSQ the amyloid nucleation score was “inactive”.
With HNRSFILNTAKFLVVNNPLA the amyloid nucleation score was “inactive”.
With LNSDVVFIVPRYHNWFRSLR the amyloid nucleation score was “inactive”.
With ELMDNFLVSFVGKHRVTRSS the amyloid nucleation score was “inactive”.
For LAIVKGLVKSFLCYDFSGKV, the amyloid nucleation score was “inactive”.
With HRFVFGVYWVVVR the amyloid nucleation score was “inactive”.
In the case of GYTTMRKCFAQVEFRTPADT, the amyloid nucleation score is reported as “inactive”.
For NNGMFGNFSKSDYFDKWRYM, the amyloid nucleation score was “inactive”.
In the case of FKAILGG, the amyloid nucleation score is reported as “inactive”.
With ADSWWSLYNIFEFSSINLNV the amyloid nucleation score was “inactive”.
In the case of VSHRIFGGNMWPGKSHECMC, the amyloid nucleation score is reported as “inactive”.
With LLCNGVSGGQTNQDIFHMPC the amyloid nucleation score was “inactive”.
With CIIVISFLTITWKCAEPELQ the amyloid nucleation score was “inactive”.
For MLYLCMFTERVDDNTFALYR, the amyloid nucleation score was “inactive”.
For VRFIAR, the amyloid nucleation score was “inactive”.
With GNFDWAFHYGVFVHLCHKMG the amyloid nucleation score was “inactive”.
In the case of TMGNHFVFVS, the amyloid nucleation score is reported as “inactive”.
With NDAYITSVVGFTRYMYNFMV the amyloid nucleation score was “inactive”.
For SDDLCHCIFGVVPGKSFPTM, the amyloid nucleation score was “inactive”.
